Each sequence was assayed on MS2 coat protein (assay: apparent KD of MS2 coat protein; higher = weaker reporter binding). Conditions: Eterna round: R107; input ligand: none.
Procedure: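 RNA-MaP round R107: designed RNA switches with theophylline, tryptophan, arginine or FMN aptamers are transcribed on-chip within common flanks. They are titrated with SNAP-549-labelled MS2 coat protein in RNA-MaP buffer (100 mM Tris pH 7.5, 80 mM KCl, 4 mM MgCl2), without ligand or with the indicated ligand. Median apparent KD per design.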
For “AUAACAUGAGGAUCACCCAUGUAAGCUGAAGGAGCGGACGAAAGUCCAGGUAGGUCGCAGCGUUCCUUCACCUCAUGAGAAGGAG [SSArg-A #30 with U all better]”, the “apparent KD of MS2 coat protein” value was 22.5 nM.
“UAAUGCAGGUCGGCCGCCACUACAACAUGAGGAUCACCCAUGUACAUGUUGUAGUACGGUAUGAGUAGGACCGGGACCUGCAUAA [Trp-Ms2-M'-T'-(MT)'_Design1]” was tested, and the “apparent KD of MS2 coat protein” value was 299 nM.
With “ACGGAUCGGAAACGAUCCGCGGCUAGGGUGCGAGGACCGGUACGGCCGCCACUCGGGUAACAUGAGGAUCACCCAUGUCUGAUUU [ETA NP+V+V2 #14]” the “apparent KD of MS2 coat protein” value was 123 nM.
With “ACAUGAGGAUCACCCAUGUAUGACUAUCCUCGAGGACCGGUACGGCCGCCACUCGAACGAGUGGCUCGCGAGUGCGCACUUGCGA [5' end]” the “apparent KD of MS2 coat protein” value was 13.2 nM.
For “UUUCUUUUCUUUCUUUCCUUUCAAACCGAAGGAGCGGGAACAAACCCAGGUAGGUCGCGGUGUGACAUGAGGAUCACCCAUGUGU [Exclusion - Arginine]”, the “apparent KD of MS2 coat protein” value was 78 nM.
“UAAUUUAUAGGGUAUAUCAGAUUAACUGAAGGAGCGUGGUAAUACACAGGUAGGUCGCAGAUGGAACAUGAGGAUCACCCAUGUU [JR_ExcArginiA_Sub016]” was tested, and the “apparent KD of MS2 coat protein” value was 20 nM.
“GAGACGUCGGGAAGGAGCGCAUCAAAACCACACAUGAGGAUCACCCAUGUAUAAAUAUGCAUGCAGGUAGGUCGCCCGGUGUCCA [SS-ArgB16]” was tested, and the “apparent KD of MS2 coat protein” value was 27.1 nM.
In the case of “CCCAAAUAGAUAUUUGGGAUUUUACUCGAAGGAGCGUCAUAGUAGGCAGGUAGGUCGCGAGACAUGAGGAUCACCCAUGUAGAGA [ss-argA-N]”, the “apparent KD of MS2 coat protein” value is reported as 41.1 nM.
In the case of “GGGAAAGGAGAAGAUACCAGCCGCCUCACAAGUCUACACUACAUGAGGAUCACCCAUGUGGGCCCUUGGCAGCUUGACCGCGAAA [theeternabot_exclusion_MS2_Theo_B_20]”, the “apparent KD of MS2 coat protein” value is reported as 27.4 nM.
In the case of “UUACAUGAGGAUCACCCAUGUCAUACAGAAGGAGCGUCACAUAAGACAGGUAGGUCGCUGUUAUUUUUUACUAUUAUAUCCUCUA [JR_Nu_ExcArginiA_Sub030]”, the “apparent KD of MS2 coat protein” value is reported as 30.8 nM.
In the case of “ACACGUGAGGAUCAUCCAUGUGCCCAUGAAGGAGCGUGGGAAACCACAGGUAGGUCGCAUGACAUGAGGAUCACCCAUGUUUAUU [#04 Exclusion - Arginine A]”, the “apparent KD of MS2 coat protein” value is reported as 86.9 nM.
With “AAUCGGAGAUGAAGGAGCGCGUACAUGAGGAUCACCCAUGUAUCAAAGCUUCUCCCGUGUAUGCAGGUAGGUCGCAUUUCCACGU [Ceriedan]” the “apparent KD of MS2 coat protein” value was 9.12 nM.
“AGCCCGUGAGCGGCCGCCACUGGAGGCUUUGCGCGACAUGAGGAUCACCCAUGUGUGCCCGGCGUUAGGACCGGGUUCGCGUGGU [#1 Same State - Tryptophan B Attempt #18 (HarryS)]” was tested, and the “apparent KD of MS2 coat protein” value was 38.5 nM.
In the case of “CUCCUGGGAGCGGCCGCCACUGGAGGCCUCGCGCGACAUGAGGAUCACCCAUGUUGGCCCGGCCUCAGGACCGGGUUCGCGCGAG [Same State - Tryptophan B Attempt #3]”, the “apparent KD of MS2 coat protein” value is reported as 12.9 nM.
“AGCGCAGGUCCUGAUACCAGAGACAUGAGGAUCACCCAUGUCCGGUGGUCCUGCCACAGGCUCCCUUGGCAGCAGGGCUUGUGCU [Exclusion Theophylline B GF9]” was tested, and the “apparent KD of MS2 coat protein” value was 28.7 nM.
In the case of “ACAUGAGGAUCACCCAUGUAAUGGCACGAUACCAGCUGAUCCCGUGGCCCUUGGCAGCGUCCGGUGUGGUCCGGCGGGUUGGACG [LLLMULLIN]”, the “apparent KD of MS2 coat protein” value is reported as 14.5 nM.
For “ACAUGAGGGCGAAGGAGCGCGAACAUGAGGAUCACCCAUGUCUAUAUCCGUCCGCAUGUAUCGCAGGUAGGUCGCGCUGUUACUU [#13 Exclusion - Arginine B]”, the “apparent KD of MS2 coat protein” value was 8.6 nM.
For “AAAUAAAUACAUGAGGAUCACCCAUGUGAAGGAGCGCCCGUUAGGGCAGGUAGGUCGCACAUGAAAGGGAAGCGAAAGAAAUAAU [ArgEX 15 #OpenEnded]”, the “apparent KD of MS2 coat protein” value was 20.2 nM.
For “UGUAUGUGAUCUGAUACCAGCUUUGAUAACCUGAGGAUCACCCUGGUAAGGCGAAAGCCAAGCCCUUGGCAGCAGAUCGCAUACU”, the “apparent KD of MS2 coat protein” value was 34.5 nM.

Same assay, conditions: Eterna round: R107; input ligand: theophylline 20 uM
“AUAACAUGAGGAUCACCCAUGUAAGCUGAAGGAGCGGACGAAAGUCCAGGUAGGUCGCAGCGUUCCUUCACCUCAUGAGAAGGAG [SSArg-A #30 with U all better]” was tested, and the “apparent KD of MS2 coat protein” value was 37.5 nM.
With “UAAUGCAGGUCGGCCGCCACUACAACAUGAGGAUCACCCAUGUACAUGUUGUAGUACGGUAUGAGUAGGACCGGGACCUGCAUAA [Trp-Ms2-M'-T'-(MT)'_Design1]” the “apparent KD of MS2 coat protein” value was 154 nM.
In the case of “AAUGUGAAGGCGGCCGCCACUGAUAAUAGACAUGAGGAUCACCCAUGUAUAAAUCCUCAAUAAGACAGGACCGGGCCAUCUACGU [#25 Exclusion Tryptophan B]”, the “apparent KD of MS2 coat protein” value is reported as 134 nM.
For “ACGGAUCGGAAACGAUCCGCGGCUAGGGUGCGAGGACCGGUACGGCCGCCACUCGGGUAACAUGAGGAUCACCCAUGUCUGAUUU [ETA NP+V+V2 #14]”, the “apparent KD of MS2 coat protein” value was 116 nM.
For “AAUGUAUGGCACAUGAGGAUCACCCAUGUGCGAGGACCGGUACGGCCGCCACUCGGUCCUGGGAACUUAUUACUAUACAUUAAUG [XTryp A #18]”, the “apparent KD of MS2 coat protein” value was 16.9 nM.
With “GUAUGGAAACAUACUAUGGUAUCGUGAGAUACCAGUACAGAAAUGUACCCUUGGCAGCUCGCGCAUACAUGAGGAUCACCCAUGU [Ex Theophylline A 10]” the “apparent KD of MS2 coat protein” value was 25 nM.
For “ACAUGAGGAUCACCCAUGUAUGACUAUCCUCGAGGACCGGUACGGCCGCCACUCGAACGAGUGGCUCGCGAGUGCGCACUUGCGA [5' end]”, the “apparent KD of MS2 coat protein” value was 16.7 nM.
For “UUCGUAUUGUCGGCCGCCACUGCAACAUGAGGAUCACCCAUGUAAGAAUGGUUGUAAAUAUAUUACAGGACCGGGACAAUAGUAA [JR_ExcTryptoB_Sub018]”, the “apparent KD of MS2 coat protein” value was 24.1 nM.
“UUUCUUUUCUUUCUUUCCUUUCAAACCGAAGGAGCGGGAACAAACCCAGGUAGGUCGCGGUGUGACAUGAGGAUCACCCAUGUGU [Exclusion - Arginine]” was tested, and the “apparent KD of MS2 coat protein” value was 106 nM.
For “UAAUUUAUAGGGUAUAUCAGAUUAACUGAAGGAGCGUGGUAAUACACAGGUAGGUCGCAGAUGGAACAUGAGGAUCACCCAUGUU [JR_ExcArginiA_Sub016]”, the “apparent KD of MS2 coat protein” value was 27 nM.
“GAGUAGAAGACGGCCGCCACUAAACAUGAGGAUCACCCAUGUCGUGAUCCGUUACCUAGAGUAGAUAGGACCGGGUCAUAUAGUC [Exclusion Tryptophan B GF 15]” was tested, and the “apparent KD of MS2 coat protein” value was 41.5 nM.
“GGCAAGCGAGACAUGAGGAUCACCCAUGUUCGAGGACCGGUACGGCCGCCACUCGGUGGACUCAUGGUAAAGCCGGUGAGCCAAA [AK 1 SS Trypt (A)]” was tested, and the “apparent KD of MS2 coat protein” value was 44.8 nM.
For “GAGACGUCGGGAAGGAGCGCAUCAAAACCACACAUGAGGAUCACCCAUGUAUAAAUAUGCAUGCAGGUAGGUCGCCCGGUGUCCA [SS-ArgB16]”, the “apparent KD of MS2 coat protein” value was 33.6 nM.
In the case of “AAAUAAAUAACUGAUACCAGUGUACUGACAUGAGGAUCACCCAUGUUGGGUUUUGUUGUACACCCUUGGCAGCAGAAAUAUAAAA [AstrosExyTheB#1]”, the “apparent KD of MS2 coat protein” value is reported as 41.2 nM.
In the case of “CCCAAAUAGAUAUUUGGGAUUUUACUCGAAGGAGCGUCAUAGUAGGCAGGUAGGUCGCGAGACAUGAGGAUCACCCAUGUAGAGA [ss-argA-N]”, the “apparent KD of MS2 coat protein” value is reported as 45.9 nM.
With “AGGUACAGCAGGUGAUUCUGGCUGUACCAACGAGGACCGGUACGGCCGCCACUCGAAUAAACAUGAGGAUCACCCAUGUACAAAU [T''-M-T'-T-MS2 - Design 7]” the “apparent KD of MS2 coat protein” value was 41.3 nM.
For “GGGAAAGGAGAAGAUACCAGCCGCCUCACAAGUCUACACUACAUGAGGAUCACCCAUGUGGGCCCUUGGCAGCUUGACCGCGAAA [theeternabot_exclusion_MS2_Theo_B_20]”, the “apparent KD of MS2 coat protein” value was 47.7 nM.
With “UUACAUGAGGAUCACCCAUGUCAUACAGAAGGAGCGUCACAUAAGACAGGUAGGUCGCUGUUAUUUUUUACUAUUAUAUCCUCUA [JR_Nu_ExcArginiA_Sub030]” the “apparent KD of MS2 coat protein” value was 45.8 nM.
In the case of “AUCUCAUAGAGUGAUACCAGACUACAUGAGGAUCACCCAUGUUAGAUUUAAAUAUCAUUUGUCCCUUGGCAGCACAUUAAGUACA [JR_Nu_SSTheophyB_Sub021]”, the “apparent KD of MS2 coat protein” value is reported as 14.8 nM.
